Measured values taken from publication PMC7126611.
pKd: −log10 of the molar value.

System: His-PTB (polypyrimidine tract-binding protein, pETPTB), P26599-1
Test: EMSA

**Q.** How did the pKd turn out when “GGGCCAGACACUGAUUAUAUGGUUCAUAUGGGUAAUUACCUUCCCUAGGCUAAGGACUAACUGGUAUAUACCAUAAUUAAA [SHFV 3'(+)NCR RNA]” was run?
**A.** 8.15
